{
  "source": "paper PMC4624693",
  "origin": "cited, not measured here",
  "key": {"Glu24": {"target": "Glu24 (UniProt position 1000, VCMHIESLDSY)", "assay": "NMR", "conditions": "free, folded protein"}, "Cterm53": {"target": "Cterm53 (UniProt position 1029, RWWELRHAGYG)", "assay": "NMR", "conditions": "free, folded protein"}, "Asp40": {"target": "Asp40 (UniProt position 1016, IGYSGDRCQTR)", "assay": "NMR", "conditions": "free, folded protein"}, "Asp46": {"target": "Asp46 (UniProt position 1022, RCQTRDLRWWE)", "assay": "NMR", "conditions": "free, folded protein"}, "Asp11": {"target": "Asp11 (UniProt position 987, CPSSYDGYCLN)", "assay": "NMR", "conditions": "free, folded protein"}, "Asp27": {"target": "Asp27 (UniProt position 1003, HIESLDSYTCN)", "assay": "NMR", "conditions": "free, folded protein"}, "Glu51": {"target": "Glu51 (UniProt position 1027, DLRWWELRHAG)", "assay": "NMR", "conditions": "free, folded protein"}, "Nterm1": {"target": "Nterm1 (UniProt position 977, HHLDRNSYPGC)", "assay": "NMR", "conditions": "free, folded protein"}, "His22": {"target": "His22 (UniProt position 998, GGVCMHIESLD)", "assay": "NMR", "conditions": "free, folded protein"}, "Lys66": {"target": "Lys66 (UniProt position 148, FTKKMKENAKK)"}, "Asp": {"target": "Asp", "conditions": "free peptide"}},
  "data": [
    {"molecule": "Epidermal growth factor (mouse EGF) (Mus musculus)", "values": [
      {"measurement": "pKa", "setting": "Glu24", "value": "4.1±0.1"},
      {"measurement": "pKa", "setting": "Cterm53", "value": "3.5±0.1"},
      {"measurement": "pKa", "setting": "Asp40", "value": "3.6±0.1"},
      {"measurement": "pKa", "setting": "Asp46", "value": "3.8±0.1"},
      {"measurement": "pKa", "setting": "Asp11", "value": "3.9±0.05"},
      {"measurement": "pKa", "setting": "Asp27", "value": "4.0±0.1"},
      {"measurement": "pKa", "setting": "Glu51", "value": "~4"},
      {"measurement": "pKa", "setting": "Nterm1", "value": "7.7±0.1"},
      {"measurement": "pKa", "setting": "His22", "value": "6.8±0.1"}
    ]},
    {"molecule": "Staphylococcal nuclease Delta+PHS/V66K (Staphylococcus aureus; V66K; Delta+PHS background (substitutions not listed in the article))", "values": [
      {"measurement": "pKa", "setting": "Lys66", "value": 5.6}
    ]},
    {"molecule": "SDNKTYG", "values": [
      {"measurement": "pKa", "setting": "Asp", "value": 3.6}
    ]}
  ]
}
